The text below walks through data of patent US20090018083A1.

Assay [1] deals with T1, BCL6-3C BTB domain (human BCL6 residues 5-129 with C8Q/C67R/C84N) (human), P41182. As to the kind of experiment: ITC in solution, 25° C; ITC in solution, not SPR. Particulars: remark: other sources report otherwise.
Assay [2] has as its target T1, BCL6-3C BTB domain (human BCL6 residues …). In words: ITC in solution, 25° C. The note with it: remark: other sources report otherwise.

The term Kd denotes the constant that tells how readily two partners part at equilibrium. Read a low Kd as tighter binding.

Consider LVATVKEAGRSIHEIPR [SMRT^1414-1430 peptide (SMRT-BBD), no additional N-terminal residues], for which the Kd in assay [1] came to 11.4 µM. Besides, in assay [2], the -TΔS worked out at 16.4, the stoichiometry (SMRT peptides per BCL6 chain) (SMRT peptides per BCL6 chain) amounted to 1.11 and the ΔH was -23.2 kcal/mol.
